These results are taken from paper doi:10.1101/2024.01.05.574393.

Residue numbers refer to the chain shown, from its start. Names may count otherwise.

The labels stand for the following.
B1: FLNCd24 (domain 24 of filamin C, residues 2630-2724), wild type (domain or fragment)
chain: GSKFSSDASKVVTRGPGLSQAFVGQKNSFTVDCSKAGTNMMMVGVHGPKTPCEEVYVKHMGNRVYNVTYTVKEKGDYILIVKWGDESVPGSPFKVKV
B2: FLNCd24 Y2683E (phospho-mimic, residues 2630-2724) (domain or fragment)
chain: B1 chain with Y56E
B3: FLNCd24 T2677D (phospho-mimic, residues 2630-2724) (domain or fragment)
chain: B1 chain with T50D

This test concerns the target HSPB7ACD (α-crystallin domain, residues 78-162 of isoform 2) (human). The experiment in a line: native MS.
The term Kd denotes the equilibrium constant for the complex coming apart. Consider B1, for which the Kd stood at 3.9 nM. In other words, the single-digit nanomolar range.
To B2 belongs 2.2 nM; to B3, 14.1 nM.
